B1: TOMM22 (protein, UniProt Q9NS69 2-142, looked up)
Mitochondrial import receptor …: AAAVAAAGAGEPQSPDELLPKGDAEKPEEELEEDDDEELDETLSERLWGLTEMFPERVRSAAGATFDLSLFVAQKMYRFSRAALWIGTTSFMILVLPVVFETEKLQMEQQQQLQQRQILLGPNTGLSGGMPGALPSLPGKI
B2: RPN2 (protein, UniProt P04844 23-631, looked up)
Dolichyl-diphosphooligosacchar …: LTPTHYLTKHDVERLKASLDRPFTNLESAFYSIVGLSSLGAQVPDAKKACTYIRSNLDPSNVDSLFYAAQASQALSGCEISISNETKDLLLAAVSEDSSVTQIYHAVAALSGFGLPLASQEALSALTARLSKEETVLATVQALQTASHLSQQADLRSIVEEIEDLVARLDELGGVYLQFEEGLETTALFVAATYKLMDHVGTEPSIKEDQVIQLMNAIFSKKNFESLSEAFSVASAAAVLSHNRYHVPVVVVPEGSASDTHEQAILRLQVTNVLSQPLTQATVKLEHAKSVASRATVLQKTSFTPVGDVFELNFMNVKFSSGYYDFLVEVEGDNRYIANTVELRVKISTEVGITNVDLSTVDKDQSIAPKTTRVTYPAKAKGTFIADSHQNFALFFQLVDVNTGAELTPHQTFVRLHNQKTGQEVVFVAEPDNKNVYKFELDTSERKIEFDSASGTYTLYLIIGDATLKNPILWNVADVVIKFPEEEAPSTVLSQNLFTPKQEIQHLFREPEKRPPTVVSNTFTALILSPLLLLFALWIRIGANVSNFTFAPSTIIFHLGHAAMLGLMYVYWTQLNMFQTLKYLAILGSVTFLAGNRMLAQQAVKRTAH
B3: DPM1 (protein, UniProt O60762 2-260, looked up)
Dolichol-phosphate …: ASLEVSRSPRRSRRELEVRSPRQNKYSVLLPTYNERENLPLIVWLLVKSFSESGINYEIIIIDDGSPDGTRDVAEQLEKIYGSDRILLRPREKKLGLGTAYIHGMKHATGNYIIIMDADLSHHPKFIPEFIRKQKEGNFDIVSGTRYKGNGGVYGWDLKRKIISRGANFLTQILLRPGASDLTGSFRLYRKEVLEKLIEKCVSKGYVFQMEMIVRARQLNYTIGEVPISFVDRVYGESKLGGNEIVSFLKGLLTLFATT
B4: VDAC2 (protein, UniProt P45880 2-294, looked up)
Non-selective voltage-gated …: ATHGQTCARPMCIPPSYADLGKAARDIFNKGFGFGLVKLDVKTKSCSGVEFSTSGSSNTDTGKVTGTLETKYKWCEYGLTFTEKWNTDNTLGTEIAIEDQICQGLKLTFDTTFSPNTGKKSGKIKSSYKRECINLGCDVDFDFAGPAIHGSAVFGYEGWLAGYQMTFDSAKSKLTRNNFAVGYRTGDFQLHTNVNDGTEFGGSIYQKVCEDLDTSVNLAWTSGTNCTRFGIAAKYQLDPTASISAKVNNSSLIGVGYTQTLRPGVKLTLSALVDGKSINAGGHKVGLALELEA
B5: TMCO1 (protein, UniProt Q9UM00 1-239, looked up)
Calcium load-activated …: MPRKRKCDLRAVRVGLLLGGGGVYGSRFRFTFPGCRALSPWRVRVQRRRCEMSTMFADTLLIVFISVCTALLAEGITWVLVYRTDKYKRLKAEVEKQSKKLEKKKETITESAGRQQKKKIERQEEKLKNNNRDLSMVRMKSMFAIGFCFTALMGMFNSIFDGRVVAKLPFTPLSYIQGLSHRNLLGDDTTDCSFIFLYILCTMSIRQNIQKILGLAPSRAATKQAGGFLGPPPPSGKFS
B6: U2SURP (protein, UniProt O15042 2-1029, looked up)
U2 snRNP-associated SURP …: ADKTPGGSQKASSKTRSSDVHSSGSSDAHMDASGPSDSDMPSRTRPKSPRKHNYRNESARESLCDSPHQNLSRPLLENKLKAFSIGKMSTAKRTLSKKEQEELKKKEDEKAAAEIYEEFLAAFEGSDGNKVKTFVRGGVVNAAKEEHETDEKRGKIYKPSSRFADQKNPPNQSSNERPPSLLVIETKKPPLKKGEKEKKKSNLELFKEELKQIQEERDERHKTKGRLSRFEPPQSDSDGQRRSMDAPSRRNRSSGVLDDYAPGSHDVGDPSTTNLYLGNINPQMNEEMLCQEFGRFGPLASVKIMWPRTDEERARERNCGFVAFMNRRDAERALKNLNGKMIMSFEMKLGWGKAVPIPPHPIYIPPSMMEHTLPPPPSGLPFNAQPRERLKNPNAPMLPPPKNKEDFEKTLSQAIVKVVIPTERNLLALIHRMIEFVVREGPMFEAMIMNREINNPMFRFLFENQTPAHVYYRWKLYSILQGDSPTKWRTEDFRMFKNGSFWRPPPLNPYLHGMSEEQETEAFVEEPSKKGALKEEQRDKLEEILRGLTPRKNDIGDAMVFCLNNAEAAEEIVDCITESLSILKTPLPKKIARLYLVSDVLYNSSAKVANASYYRKFFETKLCQIFSDLNATYRTIQGHLQSENFKQRVMTCFRAWEDWAIYPEPFLIKLQNIFLGLVNIIEEKETEDVPDDLDGAPIEEELDGAPLEDVDGIPIDATPIDDLDGVPIKSLDDDLDGVPLDATEDSKKNEPIFKVAPSKWEAVDESELEAQAVTTSKWELFDQHEESEEEENQNQEEESEDEEDTQSSKSEEHHLYSNPIKEEMTESKFSKYSEMSEEKRAKLREIELKVMKFQDELESGKRPKKPGQSFQEQVEHYRDKLLQREKEKELERERERDKKDKEKLESRSKDKKEKDECTPTRKERKRRHSTSPSPSRSSSGRRVKSPSPKSERSERSERSHKESSRSRSSHKDSPRDVSKKAKRSPSGSRTPKRSRRSRSRSPKKSGKKSRSQSRSPHRSHKKSKKNKH
B7: SRPR (protein, UniProt P08240 1-638, looked up)
Signal recognition particle …: MLDFFTIFSKGGLVLWCFQGVSDSCTGPVNALIRSVLLQERGGNNSFTHEALTLKYKLDNQFELVFVVGFQKILTLTYVDKLIDDVHRLFRDKYRTEIQQQSALSLLNGTFDFQNDFLRLLREAEESSKIRAPTTMKKFEDSEKAKKPVRSMIETRGEKPKEKAKNSKKKGAKKEGSDGPLATSKPVPAEKSGLPVGPENGVELSKEELIRRKREEFIQKHGRGMEKSNKSTKSDAPKEKGKKAPRVWELGGCANKEVLDYSTPTTNGTPEAALSEDINLIRGTGSGGQLQDLDCSSSDDEGAAQNSTKPSATKGTLGGMFGMLKGLVGSKSLSREDMESVLDKMRDHLIAKNVAADIAVQLCESVANKLEGKVMGTFSTVTSTVKQALQESLVQILQPQRRVDMLRDIMDAQRRQRPYVVTFCGVNGVGKSTNLAKISFWLLENGFSVLIAACDTFRAGAVEQLRTHTRRLSALHPPEKHGGRTMVQLFEKGYGKDAAGIAMEAIAFARNQGFDVVLVDTAGRMQDNAPLMTALAKLITVNTPDLVLFVGEALVGNEAVDQLVKFNRALADHSMAQTPRLIDGIVLTKFDTIDDKVGAAISMTYITSKPIVFVGTGQTYCDLRSLNAKAVVAALMKA

Columns and labels:
[1] = test system: GFP-14-3-3β and its binding proteins; experiment: GFP-14-3-3β co-IP with LC-MS/MS label-free quantification, untreated versus PP1c-treated; set-up: species or system human; conditions: label-free quantification
GFP-14-3-3β = GFP-14-3-3β co-IP with LC-MS/MS, untreated GFP-14-3-3β versus GFP control (14-3-3 interactome); assay type: binding, human; conditions: label-free quantification

Molecule	Difference (log2), PP1 vs untreated ([1]; PP1 vs untreated)	Difference (log2), untreated vs GFP (GFP-14-3-3β; untreated vs GFP)	Difference (log2), PP1 vs untreated ([1]; log2 difference, pairwise comparison PP1 vs untreated, 3 replicates each)	Difference (log2), untreated vs GFP (GFP-14-3-3β; log2 difference, pairwise comparison untreated vs GFP, 3 replicates each)
B1	0.9341 log2	-0.3585 log2	–	–
B2	–	–	2.419	-1.824
B3	0.914 log2	1.004 log2	–	–
B4	0.9262 log2	2.092 log2	–	–
B5	0.8935 log2	2.261 log2	–	–
B6	0.8713 log2	0.6 log2	–	–
B7	0.9083 log2	-0.7055 log2	–	–
